Reference: article PMC7493027, “Mps1 dimerization and multisite interactions with Ndc80 complex enable responsive spindle assembly checkpoint signaling” (Journal of Molecular Cell Biology, 2020)
Values belong to the binder of their own block, whether it stands above or below them.

What was measured:
[1] = target: the molecule itself; assay: pull-down; GST-Mps1^C342-WT, GST-Mps1^C342-KD or GST-Mps1^PK-KD on agarose beads; purified 6× His-tagged Mps1^C342-WT or -KD; SDS-PAGE and anti-6× His blot (Figure 3C, Supplementary Figure S4E)
GST-Nuf2^1–169 = target: T1, GST-Nuf2^1–169 (UniProt Q9BZD4 1-169); assay: pull-down; GST-Hec1^1–196, GST-Hec1^1–196-9D or GST-Nuf2^1–169 on agarose beads as affinity matrices; MBP-tagged Mps1 truncations purified from E. coli; SDS-PAGE and anti-MBP blot; settings: both partners purified
T1 construct: Nuf2 (nuclear filament-containing protein 2), residues 1-169, with the calponin-homology domain
T1 sequence (looked up): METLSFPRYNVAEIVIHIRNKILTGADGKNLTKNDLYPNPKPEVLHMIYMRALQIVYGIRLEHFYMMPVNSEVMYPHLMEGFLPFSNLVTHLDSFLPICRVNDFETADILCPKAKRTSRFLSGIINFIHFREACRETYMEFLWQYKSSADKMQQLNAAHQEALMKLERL

GST-Hec1^1–196 = target: T2, GST-Hec1^1–196 (UniProt O14777 1-196); assay: as above; settings: both partners purified
T2 construct: Hec1 (highly expressed in cancer 1)
T2 sequence (looked up): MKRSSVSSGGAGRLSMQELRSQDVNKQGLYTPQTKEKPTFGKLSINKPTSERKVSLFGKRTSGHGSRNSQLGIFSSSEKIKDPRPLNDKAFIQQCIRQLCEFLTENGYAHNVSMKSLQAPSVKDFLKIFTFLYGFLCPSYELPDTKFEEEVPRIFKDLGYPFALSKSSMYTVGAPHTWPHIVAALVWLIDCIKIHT

B1: Mps1^C342-WT fragment (amino acids 516–857), GST-tagged or 6× His-tagged (domain or fragment, human, UniProt P33981 516-857, looked up)
chain: ECISVKGRIYSILKQIGSGGSSKVFQVLNEKKQIYAIKYVNLEEADNQTLDSYRNEIAYLNKLQQHSDKIIRLYDYEITDQYIYMVMECGNIDLNSWLKKKKSIDPWERKSYWKNMLEAVHTIHQHGIVHSDLKPANFLIVDGMLKLIDFGIANQMQPDTTSVVKDSQVGTVNYMPPEAIKDMSSSRENGKSKSKISPKSDVWSLGCILYYMTYGKTPFQQIINQISKLHAIIDPNHEIEFPDIPEKDLQDVLKCCLKRDPKQRISIPELLAHPYVQIQTHPVNQMAKGTTEEMKYVLGQLVGLNSPNSILKAAKTLYEHYSGGESHNSSSSKTFEKKRGKK
notes: Mps1, human, amino acids 516-857: protein kinase domain (516-792) and C-tail (793-857); Two differently tagged copies of one fragment: the GST copy was the bait on beads, the 6× His copy the prey; each chain bears only one of the two tags; also called GST-Mps1^C342-WT; 6× His-Mps1^C342-WT; source: recombinant, purified
- binding result [1]: binds

- binding result (GST-Nuf2^1–169): binds
- binding result (GST-Hec1^1–196): binds
B2: MBP-tagged Mps1 C-terminal extension (CTE, amino acids 193–300) (domain or fragment, human, UniProt P33981 193-300, looked up)
chain: QLLSEEEKKNLSASTVLTAQESFSGSLGHLQNRNNSCDSRGQTTKARFLYGENMPPQDAEIGYRNSLRQTNKTKQSCPFGRVPVNLLNSPDCDVKTDDSVVPCFMKRQ
notes: Mps1, human, C-terminal extension of N300, amino acids 193-300; source: Escherichia coli, purified

- binding result (GST-Nuf2^1–169): binds
- binding result (GST-Hec1^1–196): binds
B3: MBP-tagged Mps1 tetratricopeptide repeat domain (TPR, amino acids 62–192) (domain or fragment, human, UniProt P33981 62-192, looked up)
chain: PEDWLSLLLKLEKNSVPLSDALLNKLIGRYSQAIEALPPDKYGQNESFARIQVRFAELKAIQEPDDARDYFQMARANCKKFAFVHISFAQFELSQGNVKKSKQLLQKAVERGAVPLEMLEIALRNLNLQKK
notes: Mps1, human, tetratricopeptide repeat domain, amino acids 62-192; also called Mps1^TPR; source: Escherichia coli, purified
